This is an account of results in article PMC6173745, “Aberrant expression of CITED2 promotes prostate cancer metastasis by activating the nucleolin-AKT pathway” (Nature Communications, 2018).

Test [1] has as its target T1, Human recombinant protein PRMT5 (human, UniProt O14744 1-637).
T1 construct: PRMT5, human, recombinant protein bought from Origene; No catalogue number, host, tag or limits are printed; source: bought: Origene
Kind of test: co-IP; in vitro binding assay: recombinant proteins CITED2, PRMT5, NCL and P300 put together in a test tube, immunoprecipitated with the indicated antibodies, immunoblotted. The note with it: both partners purified. In general terms: In western blotting, separated proteins are transferred to a membrane and probed.

Test [2] deals with T2, Human recombinant protein NCL (human, UniProt P19338 1-710).
T2 construct: Nucleolin, human, recombinant protein bought from Origene; No catalogue number, host, tag or limits are printed; also called nucleolin; source: bought: Origene
T2 sequence (P19338 whole entry): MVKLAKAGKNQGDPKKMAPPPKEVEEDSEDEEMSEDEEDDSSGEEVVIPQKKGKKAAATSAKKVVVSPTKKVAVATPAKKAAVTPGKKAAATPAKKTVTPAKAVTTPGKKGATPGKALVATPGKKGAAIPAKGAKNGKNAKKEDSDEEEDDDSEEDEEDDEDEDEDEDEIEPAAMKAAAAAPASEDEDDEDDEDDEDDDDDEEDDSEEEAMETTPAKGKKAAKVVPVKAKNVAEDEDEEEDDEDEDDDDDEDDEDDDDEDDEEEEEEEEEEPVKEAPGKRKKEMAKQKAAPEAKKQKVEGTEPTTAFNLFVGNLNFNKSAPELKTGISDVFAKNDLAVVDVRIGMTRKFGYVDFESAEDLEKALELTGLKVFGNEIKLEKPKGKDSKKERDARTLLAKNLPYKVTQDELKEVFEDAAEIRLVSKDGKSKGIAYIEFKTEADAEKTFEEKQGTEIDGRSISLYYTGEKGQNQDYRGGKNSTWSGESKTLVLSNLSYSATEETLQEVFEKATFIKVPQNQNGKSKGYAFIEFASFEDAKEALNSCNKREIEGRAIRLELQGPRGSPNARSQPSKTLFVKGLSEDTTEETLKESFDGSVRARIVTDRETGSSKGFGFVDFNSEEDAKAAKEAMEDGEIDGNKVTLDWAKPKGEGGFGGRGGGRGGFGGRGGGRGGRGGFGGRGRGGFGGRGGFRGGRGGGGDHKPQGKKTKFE
Described as above. The note with it: both partners purified.

T1 sequence (O14744 whole entry): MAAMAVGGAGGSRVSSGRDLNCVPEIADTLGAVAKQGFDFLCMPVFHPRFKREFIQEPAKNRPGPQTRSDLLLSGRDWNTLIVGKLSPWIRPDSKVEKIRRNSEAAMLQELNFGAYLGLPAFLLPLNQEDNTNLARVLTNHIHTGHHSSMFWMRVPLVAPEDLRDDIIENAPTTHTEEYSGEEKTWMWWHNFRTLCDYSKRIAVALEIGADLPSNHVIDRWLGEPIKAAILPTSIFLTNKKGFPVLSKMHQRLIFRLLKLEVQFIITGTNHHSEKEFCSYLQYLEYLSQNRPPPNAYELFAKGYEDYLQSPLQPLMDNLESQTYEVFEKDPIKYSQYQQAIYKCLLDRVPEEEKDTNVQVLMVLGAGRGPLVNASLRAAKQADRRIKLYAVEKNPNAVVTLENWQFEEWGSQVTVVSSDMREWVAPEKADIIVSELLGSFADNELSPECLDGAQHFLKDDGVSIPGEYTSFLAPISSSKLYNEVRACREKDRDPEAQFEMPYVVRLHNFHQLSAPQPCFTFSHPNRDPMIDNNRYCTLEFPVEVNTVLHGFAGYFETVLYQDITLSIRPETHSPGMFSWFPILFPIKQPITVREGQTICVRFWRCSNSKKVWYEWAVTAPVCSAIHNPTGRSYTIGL

B1: Human recombinant protein CITED2 (natural protein, UniProt Q99967 1-270, looked up)
chain: MADHMMAMNHGRFPDGTNGLHHHPAHRMGMGQFPSPHHHQQQQPQHAFNALMGEHIHYGAGNMNATSGIRHAMGPGTVNGGHPPSALAPAARFNNSQFMGPPVASQGGSLPASMQLQKLNNQYFNHHPYPHNHYMPDLHPAAGHQMNGTNQHFRDCNPKHSGGSSTPGGSGGSSTPGGSGSSSGGGAGSSNSGGGSGSGNMPASVAHVPAAMLPPNVIDTDFIDEEVLMSLVIEMGLDRIKELPELWLGQNEFDFMTDFVCKQQPSRVSC
notes: CITED2, human, recombinant protein bought from Origene; No catalogue number, host, tag or limits are printed; source: bought: Origene
Turning to B1, the binding result in test [1] and in test [2] was “binds” throughout.
